T1: rat insulin receptor substrate IRS1 (rat, UniProt P35570 1-1235, limits assumed)
T1 construct: The legend says Rat IRS1; also called Rat IRS1
T1 sequence (looked up): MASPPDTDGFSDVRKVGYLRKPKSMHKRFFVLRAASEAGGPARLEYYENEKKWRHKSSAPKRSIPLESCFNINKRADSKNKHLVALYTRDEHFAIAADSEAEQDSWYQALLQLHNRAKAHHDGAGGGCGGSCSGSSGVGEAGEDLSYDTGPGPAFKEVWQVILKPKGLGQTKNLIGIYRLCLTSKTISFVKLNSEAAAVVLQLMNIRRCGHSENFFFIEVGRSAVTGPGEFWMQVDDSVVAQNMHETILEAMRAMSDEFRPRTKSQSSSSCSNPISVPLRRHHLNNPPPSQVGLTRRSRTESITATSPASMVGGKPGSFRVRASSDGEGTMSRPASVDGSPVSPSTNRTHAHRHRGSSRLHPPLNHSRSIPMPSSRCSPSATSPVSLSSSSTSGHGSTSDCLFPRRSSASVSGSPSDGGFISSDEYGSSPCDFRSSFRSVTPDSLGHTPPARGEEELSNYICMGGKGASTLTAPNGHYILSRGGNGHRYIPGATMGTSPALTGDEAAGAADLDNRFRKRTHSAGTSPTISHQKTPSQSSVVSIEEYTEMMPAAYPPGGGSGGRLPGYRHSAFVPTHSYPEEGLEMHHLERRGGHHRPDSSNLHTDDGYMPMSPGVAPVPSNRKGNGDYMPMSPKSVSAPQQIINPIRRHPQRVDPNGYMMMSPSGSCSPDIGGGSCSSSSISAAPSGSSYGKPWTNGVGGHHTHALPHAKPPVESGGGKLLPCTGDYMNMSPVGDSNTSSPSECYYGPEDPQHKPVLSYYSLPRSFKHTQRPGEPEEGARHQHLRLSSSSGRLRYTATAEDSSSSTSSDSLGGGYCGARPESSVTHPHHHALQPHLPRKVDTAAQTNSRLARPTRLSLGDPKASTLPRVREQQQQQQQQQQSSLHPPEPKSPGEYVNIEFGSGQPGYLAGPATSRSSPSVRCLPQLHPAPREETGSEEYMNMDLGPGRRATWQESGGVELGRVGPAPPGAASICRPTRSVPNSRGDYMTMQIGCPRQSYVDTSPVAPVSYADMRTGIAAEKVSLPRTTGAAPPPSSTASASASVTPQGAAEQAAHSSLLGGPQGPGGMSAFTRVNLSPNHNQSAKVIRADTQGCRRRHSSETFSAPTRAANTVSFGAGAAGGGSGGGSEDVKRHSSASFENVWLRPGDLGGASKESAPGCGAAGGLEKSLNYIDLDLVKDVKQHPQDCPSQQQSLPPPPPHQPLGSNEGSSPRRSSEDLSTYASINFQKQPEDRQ


How the values were obtained:
[1] = target: T1, rat insulin receptor substrate IRS1; assay: SPR, purified IRS1 immobilized, purified MG53 in mobile phase
[2] = target: T1, rat insulin receptor substrate IRS1; assay: SPR, Rat IRS1 immobilized (500 RU), MG53-S255A in the mobile phase [lower panel]

Kd [1]	binding result [2]	Binder
64.2 nM		mouse wild-type MG53 (enzyme, Expressed from a plasmid in HEK293T cells for co-IP and degradation assays; purified protein in the mobile phase for SPR; also called TRIM72; Mitsugumin 53) MSAAPGLLRQELSCPLCLQLFDAPVTAECGHSFCRACLIRVAGEPAADGTVACPCCQAPTRPQALSTNLQLSRLVEGLAQVPQGHCEEHLDPLSIYCEQDRTLVCGVCASLGSHRGHRLLPAAEAQARLKTQLPQQKMQLQEACMRKEKTVAVLEHQLVEVEETVRQFRGAVGEQLGKMRMFLAALESSLDREAERVRGDAGVALRRELSSLNSYLEQLRQMEKVLEEVADKPQTEFLMKFCLVTSRLQKILSESPPPARLDIQLPVISDDFKFQVWKKMFRALMPALEELTFDPSSAHPSLVVSSSGRRVECSDQKAPPAGEDTRQFDKAVAVVAQQLLSQGEHYWEVEVGDKPRWALGVMAADASRRGRLHAVPSQGLWLLGLRDGKILEAHVEAKEPRALRTPERPPARIGLYLSFADGVLAFYDASNPDVLTPIFSFHERLPGPVYPIFDVCWHDKGKNAQPLLLVGPEQEQA
	no binding (tested: 1000 nM)	mouse MG53 S255A mutant (enzyme) MSAAPGLLRQELSCPLCLQLFDAPVTAECGHSFCRACLIRVAGEPAADGTVACPCCQAPTRPQALSTNLQLSRLVEGLAQVPQGHCEEHLDPLSIYCEQDRTLVCGVCASLGSHRGHRLLPAAEAQARLKTQLPQQKMQLQEACMRKEKTVAVLEHQLVEVEETVRQFRGAVGEQLGKMRMFLAALESSLDREAERVRGDAGVALRRELSSLNSYLEQLRQMEKVLEEVADKPQTEFLMKFCLVTSRLQKILSEAPPPARLDIQLPVISDDFKFQVWKKMFRALMPALEELTFDPSSAHPSLVVSSSGRRVECSDQKAPPAGEDTRQFDKAVAVVAQQLLSQGEHYWEVEVGDKPRWALGVMAADASRRGRLHAVPSQGLWLLGLRDGKILEAHVEAKEPRALRTPERPPARIGLYLSFADGVLAFYDASNPDVLTPIFSFHERLPGPVYPIFDVCWHDKGKNAQPLLLVGPEQEQA

Source: patent US20190153406A1 (PEKING UNIVERSITY, published 2019)
